Source: patent publication US20190119362A1 (KANEKA, published 2019)
Read-outs that look alike come from different tables or passages of the source.

Columns and labels:
Experiment in all cases: SPR (Biacore 3000), Fab immobilized on CM5, peptide as analyte, 1:1 fit, 25 C
[1] = biological target: T1, aTNFa-Fab (Fab fragment of Infliximab) (Chimeric antibody/IgG1κ)
T1 construct: domain: Fab fragment; also called Infliximab Fab; Remicade Fab
Description: (§1) The IgG-Fab was immobilized on a sensor tip CM5 by amine coupling method using N-hydroxysuccinimide (NHS) and N-ethyl-N′-(3-dimethylaminopropyl)carbodiimide hydrochloride (EDC), and ethanolamine was used for blocking. All of the sensor tip and reagents for immobilization were manufactured by GE Healthcare Bioscience. The IgG-Fab solution was diluted to about 10 times by using a buffer for immobilization (10 mM CK₃COOH—CH₃CONa, pH 4.5), and the Fab was immobilized on the sensor tip in accordance with the protocol attached to the Biacore 3000. In addition, a reference cell as negative control was also prepared by activating another flow cell on the tip with EDC/NHS and then immobilizing human serum albumin manufactured by Wako Pure Chemical Corporation. […] Binding response curves at the time of addition (association phase, for 1 minute) and after the addition (dissociation phase, for 1 minute) were sequentially obtained at a measurement temperature of 25° C. After each measurement, about 20 mM NaOH was added for washing. With respect to the obtained binding response curve from which the binding response curve of the reference cell was subtracted, a fitting analysis was conducted by 1:1 binding model using a software included in the system, “BIA evaluation”, and an affinity constant (KA=kₒₙ/koff) for human IgG-Fab was calculated.

[2] = biological target: T1, aTNFa-Fab (Fab fragment of Infliximab); remark: listed apart in the source
Description: as §1

[3] = biological target: T1, aTNFa-Fab (Fab fragment of Infliximab); remark: listed apart in the source
Description: as §1

Row | Binder | Ka [1] | koff [1] | kon [1] | Ka [2] | koff [2] | kon [2] | also measured
1 | LB3t-Wild.1d (other, also called B3 domain) GPLGSEEVTIKANLIYADGKTQTAEFKGTFEEATAEAYRYADLLAKENGKYTVDVADKGYTLNIKFAG | 100000 M⁻¹ | 0.305 s⁻¹ | 20000 M⁻¹ s⁻¹ | – | – | – | –
2 | LB4t-Wild.1d (other, also called B4 domain) GPLGSEEVTIKANLIYADGKTQTAEFKGTFAEATAEAYRYADLLAKENGKYTADLEDGGYTINIRFAG | 300000 M⁻¹ | 0.239 s⁻¹ | 70000 M⁻¹ s⁻¹ | – | – | – | –
3 | LC4t-Wild.1d (other, also called C4 domain) GPLGSEEVTIKVNLIFADGKTQTAEFKGTFEEATAEAYRYADLLAKVNGEYTADLEDGGYTINIKFAGK | – | – | – | 20000 M⁻¹ | 0.397 s⁻¹ | 10000 M⁻¹ s⁻¹ | –
4 | LB5t-Wild.1d (B5 domain of PpL 312 with deletion of N-terminal region) (other) GPLGSEQVTIKENIYFEDGTVQTATFKGTFAEATAEAYRYADLLSKEHGKYTADLEDGGYTINIRFAG | – | – | – | – | – | – | Ka [3]: 700000 M⁻¹; koff [3]: 0.215 s⁻¹; kon [3]: 150000 M⁻¹ s⁻¹
5 | LB1t-Wild.1d (other, also called B1 domain) GPLGSEEVTIKANLIFANGSTQTAEFKGTFEKATSEAYAYADTLKKDNGEYTVDVADKGYTLNIKFAG | 30000 M⁻¹ | 0.481 s⁻¹ | 10000 M⁻¹ s⁻¹ | – | – | – | –
6 | LC1t-Wild.1d (other, also called C1 domain) GPLGSEEVTIKANLIFADGSTQNAEFKGTFAKAVSDAYAYADALKKDNGEYTVDVADKGLTLNIKFAGK | – | – | – | 200000 M⁻¹ | 0.152 s⁻¹ | 20000 M⁻¹ s⁻¹ | –
